# Laboratory results from patent publication US20230365623A1, “DERIVATISATION OF PEPTIDES AND PROTEINS” (FLOREY INSTITUTE OF NEUROSCIENCE AND MENTAL HEALTH, priority 2020, published 2023).
# Assay: Atomic force microscopy studies for fibrillation (glucagon)
# Format: physicochemical
# Details: 287 mM, Milli-Q water pH 2, 37° C., 4 days
# Method: For atomic force microscopy experiments, 287 mM solutions of glucagon and glycoglucagon prepared by dissolving each of glucagon and glycoglucagon obtained in Example 9 in Milli-Q water, adjusted to pH 2 with HCl were incubated at 37° C. for four days. Topographic images of glucagon aggregates were collected with a Dimension iCon Atomic Force Microscopy (Bruker, Billerica, MA, USA). Tapping mode atomic force microscopy (AFM) images were recorded using silicon cantilevers (model RTESPA, Veeco, Santa Barbara, CA) with resonance frequency ˜300 kHz, nominal tip radius 8 nm and nominal spring constant 42 N/m.
# Representative AFM height images are shown in FIG. 11, of (A) glucagon (287 mM) and (B) glycoglucagon (287 mM) incubated at 37° C. for 4 days. The vertical colour scale is (A) 6 nm and (B) 3 nm. Scan size: 10×5 μm^2. Each of the images of FIG. 11 are representative of 3-5 scans at different locations with varying scan sizes from 1-10 micron.
substance,measurement,value
"native glucagon: human glucagon peptide (SEQ ID NO:5), synthesised by solid phase synthesis [reference compound]",fibril formation (AFM),forms fibrils
